Laboratory results: PMC4537050, “A long pentraxin-3-derived pentapeptide for the therapy of FGF8b-driven steroid hormone-regulated cancers” (Oncotarget, 2015)

Legend:
[1] = target: Human recombinant FGF8b (fibroblast growth factor-8b) (human)
[2] = target: FGF1 (UniProt P05230); assay: SPR; BIAcore X-100; FGF8b (20 μg/ml in 10 mM sodium acetate, pH 6.0) or other FGFs (10 mM sodium acetate at optimal pH) immobilised on a CM5 sensor chip by EDC/NHS; peptide injected (ARPCA 8 μM to 2000 μM), 4 min at 30 μl/min, 10 min dissociation, in HBS; equilibrium values fitted with the Langmuir equation for monovalent binding
[3] = target: FGF2 (UniProt P09038); assay: as above
[4] = target: Human recombinant FGF8b (fibroblast growth factor-8b) (human); assay: as above

- Kd [2]: 227 µM
- Kd [3]: 1700 µM
- Kd [4]: 278 µM
Binder: Ac-ARPCA-NH2 [Ac-ARPCA-NH2, acetylated pentapeptide corresponding to PTX3(100-104)]
- inhibition of HUVEC proliferation in response to 30 ng/ml FGF8b (viable cell counts at 48 h) [1]: 30 µM
